US9279107B2, “Simplified basic media for human pluripotent cell culture” (WISCONSIN ALUMNI RESEARCH FOUNDATION, priority 2010, dated 2016)

Assays:
[1] = system: H1 cells; experiment: NANOG mRNA expression; assay type: cell-based, human; conditions: added to DF5S; NODAL 100 ng/ml or TGF-β 2 ng/ml; compared to DF5S
Excerpt: DF5S was used to expand H1 cells. Cells grown in DF5S were more prone to differentiate than cells grown in TeSR™. However, H1 cells could be grown for several weeks (more than 15 passages), during which the cells maintained human ES cell morphology and high levels of OCT4 expression (FIG. 1E, FIG. 1F). […] DF5S+NODAL also supported pluripotency of the two tested human iPS cell lines, as determined by high expression of the pluripotency marker OCT4. All cells (hES cells and iPS cells) grown in DF5S with either NODAL or TGF-β maintained a normal karyotype after long-term passage.

[2] = system: iPS cells; experiment: Long-term pluripotency of lentiviral iPS cell lines; assay type: cell-based, human; conditions: added to DF5SFe; TGF-β 2 ng/ml or NODAL 100 ng/ml
Excerpt: Human ES cell lines, such as H1 and H9 have a culture history that includes exposure to various complex culture components, such as FBS, feeder cells, and knockout serum replacer. Exposure to these components could conceivably create dependency on these components and, consequently, alter cellular response to simplified media. Culture history might play a lesser role for iPS cells, derived from reprogrammed somatic cells, as derivation conditions are less complex. Therefore, different factors were tested with two original lentiviral iPS cell lines (Yu, et al., Science 318:1917 (2007)) grown in DF5SFe. Cells were transferred from MEF plates directly into DF5SFe medium for one passage and then passaged into various growth factor conditions. […] Pluripotency surface markers SSEA4, SSEA3, Tra-1-60, and Tra-1-81 were also expressed. Cells with normal karyotypes were continuously maintained for more than 20 passages. The cells were capable of forming teratomas 5-7 weeks after injection into severe combined immunodeficient (SCID) mice.

[3] = system: H1 cells; experiment: Oct4 expression by flow cytometry as indicator of pluripotency; assay type: cell-based, human; conditions: DF5SFe supplemented with NODAL at TeSR concentration
Procedure: As described in Example 3, human pluripotent cells, such as H1, H9, and iPS cells, could be grown and passaged over 15 times in DF5S but were prone to differentiate, such that extra care is needed to sustain pluripotency in DF5S. Because pluripotency could be maintained more easily in TeSR™, growth factors present in TeSR™ were added individually to DF5SFe used to grow H1 cells that were previously cultured in DF5S without differentiating to identify factors supporting long-term pluripotency. Cells were passaged approximately one day after reaching confluency, facilitating cell differentiation, and Oct4 expression, assessed by flow cytometry, was used as indicator of pluripotency.
Human pluripotent cells grown in DF5SFe elongated and lined up along each other, resembling a “spindle” shape just prior to differentiation. […] Thus, recombinant proteins of the TGF-β pathway were tested for their ability to support long-term pluripotency.

[4] = system: foreskin cells; experiment: Foreskin cell growth in DF5SFe-based media; set-up: species or system human; conditions: individual FGF added at 100 ng/ml for 96 h to DF5SFe minus FGF
Procedure: To determine growth factors that can help primary foreskin cell growth, individual growth factors contained in FBS were tested. The FGF family of growth factors has several members, one or more of which is commonly used for fibroblast culture. DF5SFe contains 100 ng/ml zebrafish recombinant FGF2. Each FGF family member was tested for its ability to support foreskin cell growth. Foreskin cells were aliquoted into the well of culture plates and incubated for 24 hours in DF5SFe minus FGF. Individual FGF types were added at 100 ng/ml for 96 h.

B1: NODAL (protein, UniProt Q96S42 238-347, looked up)
Nodal homolog: HHLPDRSQLCRKVKFQVDFNLIGWGSWIIYPKQYNAYRCEGECPNPVGEEFHPTNHAYIQSLLKRYQPHRVPSTCCAPVKTKPLSMLYVDNGRVLLDHHKDMIVEECGCL
notes: recombinant protein of the TGF-β pathway
- NANOG mRNA level [1]: significantly higher levels of NANOG mRNA
- long-term pluripotency [2]: supported long-term pluripotency of iPS cells
- Oct4 expression [3]: sustained high Oct4 expression

B2: FGF4: FGF family member growth factor (protein, UniProt P08620 31-206, looked up)
Fibroblast growth factor 4: APTAPNGTLEAELERRWESLVALSLARLPVAAQPKEAAVQSGAGDYLLGIKRLRRLYCNVGIGFHLQALPDGRIGGAHADTRDSLLELSPVERGVVSIFGVASRFFVAMSSKGKLYGSPFFTDECTFKEILLPNNYNAYESYKYPGMFIALSKNGKTKKGNRVSPTMKVTHFLPRL
- foreskin cell growth [4]: supported foreskin cell growth most effectively

B3: FGF6: FGF family member growth factor (protein, UniProt P10767 38-208, looked up)
Fibroblast growth factor 6: SPAGTRANNTLLDSRGWGTLLSRSRAGLAGEIAGVNWESGYLVGIKRQRRLYCNVGIGFHLQVLPDGRISGTHEENPYSLLEISTVERGVVSLFGVRSALFVAMNSKGRLYATPSFQEECKFRETLLPNNYNAYESDLYQGTYIALSKYGRVKRGSKVSPIMTVTHFLPRI
- foreskin cell growth [4]: supported foreskin cell growth most effectively
